The source of these data is the DeepSol protein solubility set.

The data set is described as follows: soluble on expression in E. coli; label from the status in PepcDB or PDB records.
For “MAHHHHHHMGKHIRILKNQYLQFMSKRCIQSKAAFNICGKINVENPIVELDGDEMTRIIWKDIKEKLILPYVNLKIKYFDLSIENRDKTNDQVTIEAAEEIKKTSVGIKCATITPDAARVKEFNLKEMWKSPNGTIRNILDGTVFRTPILIKNIPKLVPNWKKPIVIGRHAYADQYKQKSLKIEKSGKFEIVFTPDDNSQVLRETVFHFKSPGVCLGMYNTEESIRNFALSCFQYALDLKMPVYMSTKSTILKIYDGLFKDIFDEIYEKQFKKSFEQHNLWYEHKLIDDMVAQVLKSEGGFLWACKNYDGDIQSDAVAQGYGSLGLMSSVLLCPDGVTCVSEAAHGTVTRHYRAYQKGEKTSTNPIASIFAWTKGLEHRAKLDKNDNLKQFCYALEKACIETVEDGLMSKDLAGCIKGIKNVTEKDYIFTQDLINAINEKLKLKILQNQSKNDPQATSYKLKNDNWNFYAPQEHST”, the “soluble on expression in E. coli” value is reported as “not soluble”. Under “AQRRAVAAAGGLARSCPAGQQALLAEGFARRLLRDVAATLHEGEYTSPLCEPLAYADPLAGLAAALAELMAWPGLLAVLQPVQAQPDAVAAAAGAGAPAAAGAGVGAGSGARQRLAQETADRARAEVLVLLQELVTWLDPCCDDSRGVAPQDAAAVSLAAFRSLVEHDPGAAAALDADTNIRWYLCNLTGDDAPPAAPPAECVAPQSDMLLDLARRLLAALPPLAAAAAPG” stands “not soluble”.

For the sequence “MNLTVSHLDKLRLPLLHKIYKENYPSGKPKGKEEIIVIEGDKKILGAMRIKTYEECHFLTGMMIIKERRGESLGSQLLFKLNEFLSLEHCYCFCEPQLSEFYLKNDFIHIDKKNIPHVLKSKHDRYTNTGKELDILLYKKTNN”, the “soluble on expression in E. coli” value is “not soluble”. In the case of “MAHHHHHHMSNQGDFNTYIYIPVKCNESIKKRCELCFDVLFKLIEMKHKECYNKSKEKNLLCHNDINKGEIHKHIYYQLYKLNEHIKENNIEKDFKEPLHITISGSLNLKRYMINSFINKIKEELKNQNSFYLFFRNEVDLYKSQKNTKYFCSYTVKEDQQELYLNTLKEKINKILNEFDLKDTHLNRIYHLSLAYTNINLDVLLEKENKKCVEEETFFWPNINELILNKDIKENRLDDLYIYVNCIHIRIGYKLYKIPFKSFDDNLNVSDSYDSYMSSTDE”, the “soluble on expression in E. coli” value is recorded as “not soluble”.

For “MSLETKTPNDAKNQVQTHERMKTSSEHVTPLDFNYPIHIVQAPQNHHVVGILTPRIQVSDNLKPYIDKFQDALINQIQTIFEKRGYQVLRFQDEKALNAQDKRKIFSVLDLKGWVGILEDLKMNLKDPNNPNLDTLVDQSSGSVWFNFYEPESNRVVHDFAVEVGTFQAMTYTYKHNNSGGLNSSNSIIHEYLEKNKEDAIHKILNRMYAVVMKKAVTELTKENIDKYREAIDRMKGFKSSMPQKKEGHHHHHH”, the “soluble on expression in E. coli” value is “soluble”. For the sequence “AIARNDLFNREKSRQLSLTPRTEKIEVKHVGKTDPGTVFVMNKNISTPYSCAMHLSEWYCSKSILALVDGQPWDMYKPLTKSCEIKFLTFKDPDPREVNKAYWRSCAMMLGCVIERAFKDDYVVSLLRAPEVPVIAGAFCYDVTLDKRLDEWMPTKENLRSFTKDAHALIYRDLPFETLDVDARVALEIFQHNKYKVDFIEEKASQNPERIVKLHRIGDFIDVSEGPLIPRTSVCFQYEVSAVHNLNPSQPNLIRRFQGLSLPTHLRAQFTIWDKLVGRSRKMVTEDEVRQTENTESTQ”, the “soluble on expression in E. coli” value was “not soluble”. On to “MSLKHVVVIGAVALGPKAACRFKRLDPEAHVTMIDQASRISYGGCGIPYYVSGEVSNIESLQATPYNVVRDPEFFRINKDVEALVETRAHAIDRAAHTVEIENLRTGERRTLKYDKLVLALGSKANRPPVEGMDLAGVTPVTNLDEAEFVQHAISAGEVSKAVIVGGGFIGLEMAVSLADMWGIDTTVVELADQIMPGFTSKSLSQMLRHDLEKNDVVVHTGEKVVRLEGENGKVARVITDKRTLDADLVILAAGVSPNTQLARDAGLELDPRGAIIVDTRMRTSDPDIFAGGDCVTIPNLVTGKPGFFPLGSMANRQGRVIGTNLADGDATFPGAVGSWAVKLFEGSASGAGLTVEGALREGYDAVNVHVEQFDRAHFYPEKTIMTLQLVVDRPTRRVLGIQGFSTLGDALTARINAVATMLASKPTVEDISNAEVVYSPPFASAMDIVNVAGNVADNVLAGRCRLVGTEEFVQLWEGRKDADICFVDTRLAANAVPLVEKYGDEWINIPEEELAARIDEIPRDKTVMLVCNTGLRSFESQLILDRLGLTNTKSVAGGMVAIHKIGGDEGHHHHHH”, for which the “soluble on expression in E. coli” value is given as “soluble”. The entry for “MGSDKIHHHHHHMSPEPNGDAVSIILETEGPMTAAPKTVRSVERTLQILELMNRAAVVRVQYLAEQIGLPAPTVVRLLETLVAAGYVRKIGRQAGYCVTEKVAALGAGHHGLPQVFDVAREAAEDLTRRTLWPTALATLDVDALVIRFSTIPMSPLSHYQSTINRRMTLLDYAHGRAYLGFCPTEERQHLVALLQQTAGSVEEARAIGERAQSVVALTRASGFGERTGNIQPETHSLALPLRMGAKLVGTLGITYFAKAKVDVSALKSDLRAAAEACTSGTAYRAPASSG” is “not soluble”.

For “MSLPRFSNVSYEQYWALREQSDEWLEYIDGAVYMAPSPSIKHQLVSSNLHTELGLYFRGKPCNVFAAPTDIELASDKFPDRKVVIPDLSVICDSKGFTETKYVGVPTLIVEILSPSNQAHDLVTKFNLYMAYGVKEYWIVNPMKEAITVYTLNEEGLYEQADVKAGTGVVQSACFPRLEVALEDVFR”, the “soluble on expression in E. coli” value is on record as “not soluble”.

For “MARHFGMALAPWDVMGGGRFQSKKAMEERRKNGECIRSFVGASEQTDAEIKISEALAKVAEEHGTESVTAIAIAYVRSKAKNVFPSVEGGKIEDLKENIKALSIDLTPDNIKYLENVVPFDIGFPNTFIVLNSLTQKYGTNNV”, the “soluble on expression in E. coli” value is given as “soluble”.

“MIELHQKRLSAPKTYKIPRKVSKWVVKPSPGPHNKEAIPLLVLVRDFLELADTGREARRIISAGEILVDGVVRKDYKFPVGLFDVVTIPKLEKSYRILFDEKGRYIPKEVEDADLKLYKITNKTLVRGGKVQLNLFDGTNILGSNDYKTKDSILLRIPEKEVVDHLKFEEGALVMITGGTHAGEIGRIKSYKIVRSSAPNLVTVEGEERDITTIEDYVFVVGKKDSDKPVIDLGVLEHHHHHH”: the “soluble on expression in E. coli” value is on record as “soluble”.

Consider “MGSSHHHHHHMTYEYILVRYGEMTTKGKNRSKFVSTLKDNVKFKLKKFPNIKIDATHDRMYIQLNGEDHEAVSERLKDVFGIHKFNLAMKVPSELEDIKKGALAAFLQVKGDVKTFKITVHRSYKHFPMRTMELLPEIGGHILENTEDITVDVHNPDVNVRVEIRSGYSYIMCDERMGAGGLPVGVGGKVMVLLSGGIDSPVAAYLTMKRGVSVEAVHFHSPPFTSERAKQKVIDLAQELTKYCKRVTLHLVPFTEVQKTINKEIPSSYSMTVMRRMMMRITERIAEERNALAITTGESLGQVASQTLDSMHTINEVTNYPVIRPLITMDKLEIIKIAEEIGTYDISIRPYEDCCTVFTPASPATKPKREKANRFEAKYDFTPLIDEAVANKETMVLQTVEVVAEEEKFEELF”, for which the “soluble on expression in E. coli” value was “soluble”. Consider “MSLKFTAIDFETANEKRNSPCSIGIVVVKDGHVVEKSHHLIRPKEMRFMPINIGIHGIRPAMVEKEPEFDKVWEKIKHYFDDTLVIAHNASFDISVLRKSAELYNIELPEFNYICTMKLARNFYKGIENAKLNTVNNFLGYEFRHHDALYDALACSNIMLSISKELKCKDITEISKLLGEGHHHHHH”, for which the “soluble on expression in E. coli” value was “not soluble”. With “MGSDKIHHHHHHMVARRRLDAELVRRKIARSREHAVEMIRGRRVFVAGMLALKPATVVEPEVSIRVEEDASEDWASRGAHKLLGALESFEPLGLKVKGRRVLDAGASTGGFTDVLLRREASEVVAVDVGYGQLIWRLQNDDRVRVVDRTNIRYMTLEDTGGECDMMVGDLSFISLKLTLPAIAKVLSDGADLLPMVKPQFEVGKDRLGSGGVVRSPELRAEVTADVAKFAATLGLSLKHVVASPLPGPSGNVEYFLWLVKDGGASMPDDQQLSAMIDTAVKEGPQ”, the “soluble on expression in E. coli” value is given as “not soluble”. Regarding “MTENAPKFKQISAEIEKKIRDGLYVSAQKLPSEYDLAKEYNCSRLTIRKAIDDLIRKNILVKRHGKGSYVMSQAKIQSGRAGLQGFTEAAKAYGKKSQTEVISFEEVVHPAEKIREALQVGKNEAIYELIRRRMLDGEPMTVEKIYLPQAYVQGHTKQDFEGSLFCLIEKNVEIAYSHQEIEAILVEAEISELLNVPVGQPLLQVHSITYALDATPILYDVSLYRADRYTFKNTLTRYSPSENNQVELGGSWNE”, the “soluble on expression in E. coli” value is given as “not soluble”. With “YATPDNMLSRFGEQDLTLLTEREDSVPGEINLALLEQALSDASAEIDGYIAGRYVLPLTTVPAVLERNCCDIARYFLYGDKAPEQVEKRYAAVVKFLTAVSKGDISLGLATTGETADQSELVISIESAGSVFGRKSAKGF”, the “soluble on expression in E. coli” value is on record as “not soluble”. For the sequence “MAAEDELQLPRLPELFETGRQLLDEVEVATEPAGSRIVQEKVFKGLDLLEKAAEMLSQLDLFSRNEDLEEIASTDLKYLLVPAFQGALTMKQVNPSKRLDHLQRAREHFINYLTQCHCYHVAEFELPKTMNNSAENHTANSSMAYPSLVAMASQRQAKIQRYKQKKELEHRLSAMKSAVESGQADDERVREYYLLHLQRWIDISLEEIESIDQEIKILRERDSSREASTSNSSRQERPPVKPFILTRNMAQAKVFGAGYPSLPTMTVSDWYEQHRKYGALPDQGIAKAAPEEFRKAAQQQEEQEEKEEEDDEQTLHRAREWDDWKDTHPRGYGNRQNMGLEHHHHHH”, the “soluble on expression in E. coli” value is “soluble”. The entry for “GAHMAGGRSWCLRRVGMSAGWLLLEDGCEVTVGRGFGVTYQLVSKICPLMISRNHCVLKQNPEGQWTIMDNKSLNGVWLNRARLEPLRVYSIHQGDYIQLGVPLENKENAEYEYEVTEEDWETIYPCLSPKNDQMIEK” is “soluble”; for “MSQSKGKKRNPGLKIPKEAFEQPQTSSTPPRDLDSKACISIGNQNFEVKADDLEPIMELGRGAYGVVEKMRHVPSGQIMAVKRIRATVNSQEQKRLLMDLDISMRTVDCPFTVTFYGALFREGDVWICMELMDTSLDKFYKQVIDKGQTIPEDILGKIAVSIVKALEHLHSKLSVIHRDVKPSNVLINALGQVKMCDFGISGYLVDSVAKTIDAGCKPYMAPERINPELNQKGYSVKSDIWSLGITMIELAILRFPYDSWGTPFQQLKQVVEEPSPQLPADKFSAEFVDFTSQCLKKNSKERPTYPELMQHPFFTLHESKGTDVASFVKLILGDLEHHHHHH” it is “soluble”; for “MGSDKIHHHHHHMTREKSSYAVQTVEKALDILETLTDESRHATLPYLAEKLDLSRNKAFRLLATLESKGLVERDETSGVYRLGISSVELAQRLLNSTSLIRHAHPIMERLARKHDEAVYIAVLKGDEVLFLDMVDCEQAIKTAPLVGRRFPFFSNAAGKAIRALESTDLLDRFLKKRGRNGGPFDPAALQQELKAVREHGVAVDFDGLGEGIVSVAVAVRDYAGKVIGALTMLGPSFRMMASRMENEIIPSLREGAEILSMKFGYAKL” it is “not soluble”. Turning to “DAARRGGAAGGGGPRSPRRSGPLGPHACPPALPEPKVTSTMSSQVVGIEPLYIKAEPASPDSPKGSSETETEPPVTLASGPAPARCLPGHKEEEDGEGAGSGEQGSGKLVLSSLPKRLCLVCGDVASGYHYGVASCEACKAFFKRTIQGSIEYSCPASNECEITKRRRKACQACRFTKCLRVGMLKEGVRLDRVRGGRQKYKRRPEVDPLPFPGPFPAGPLAVAGGPRKTAPVNALVSHLLVVEPEKLYAMPDPASPDGHLPAVATLCDLFDREIVVTISWAKSIPGFSSLSLSDQMSVLQSVWMEVLVLGVAQRSLPLQDELAFAEDLVLDEEGARAAGLGDLGAALLQLVRRLQALRLEREEYVLLKALALANSDSVHIEDAEAVEQLREALHEALLEYEAGRAGPGGGAERRRAGRLPCTLPLLRQTAGKVLAHFYGVKLEGKVPMHKLFLEMLEAMMD”, the “soluble on expression in E. coli” value is listed as “soluble”.
